Assays:
[1] = tested on: Kasumi-1a, ML2, HL60, K562, NB4, ALL-SIL and Jurkat; experiment: Combination effect of BCT-100 with Doxorubicin on leukemia cell lines; assay type: cell-based; details: FIG. 7
Source text: The combination effect of BCT-100 with Doxorubicin on various leukemia cell lines was studied. The leukemia cell lines tested were myeloid leukemia cell lines Kasumi-1a, ML2, HL60, K562, NB4 and lymphocytic leukemia cell lines ALL-SIL and Jurkat.

HL60 cells [2] = experiment: Liver, spleen and sternum cytology of HL60-inoculated mice; assay type: in vivo; details: HL60-inoculated NOD/SCIDS mice; BCT-100 50 U/mice i.p. weekly for 4 weeks; doxorubicin 3 mg/kg/day i.p.; FIG. 8
Protocol: (§1) HL60 cells were injected to the tail of NOD/SCIDS mice. Treatment commenced on day 14. The animals were divided into 4 groups. The Doxorubicin group received treatment by doxorubicin, which was administrated at 3 mg/kg/day by intraperitoneal injection 3 times weekly for the first week, thereafter once per week for 4 weeks. The BCT-100 group received treatment by BCT-100, which was administrated at 50 U/mice by intraperitoneal injection weekly for 4 weeks. The combinational group received treatment of both Doxorubicin and BCT-100, administrated as described above. The control group received intraperitoneal injection of saline. […] In the control group, infiltration of leukemia in liver, spleen and sternum was observed.

[3] = Arginine depletion in preclinical study
Source text: Arginase is a manganese-containing enzyme, catalyzing the conversion of arginine to ornithine and urea, the last step of the Urea Cycle.

HL-60 = experiment: Survival of HL60-inoculated mice; assay type: in vivo; details: HL-60-inoculated NOD/SCIDS mice; FIG. 9
Protocol: as §1
The effect of BCT-100 on the survival rate of HL-60-incoluated NOD/SCIDS mice was investigated. […] Thus BCT-100 can be administrated with Doxorubicin to treat leukemia, e.g., myeloid leukemia.

pmTOR = experiment: Western blot of pmTOR expression in HL60; assay type: cell-based; details: FIG. 3
Protocol: (§2) Expression of Bax and pmTOR was assessed in leukemic cell line HL60 by western blotting with or without BCT-100 treatment using monoclonal antibodies against Bax and pmTOR respectively. The same blot was stripped and probed with anti-actin antibody for loading control. Apoptosis was determined by annexin V labeling. HL60 cells were cultured in medium with or without BCT-100 and the expression of annexin V were analyzed by flow-cytometry at 8, 16, 24, and 36 hrs after BCT-100 treatment.

HL60 cells [4] = experiment: Granulocytic differentiation (CD11b expression, FACS); assay type: cell-based; details: HL60, within 96-hour treatment; FIG. 4b
Source text: (§3) The induction of granulocytic differentiation in NB4 and HL60 cells was studied. […] Specifically, decrease in nuclear to cytoplasmic ratio, appearance of cytoplasmic granules, chromatin condensation and loss of nucleoli were observed.

NB4 cells = experiment: as above; assay type: cell-based; details: NB4, within 96-hour treatment; FIG. 4a, 4b
Source text: as §3

Bax = experiment: Western blot of Bax expression in HL60; assay type: cell-based; details: 8 hrs after treatment and afterwards, FIG. 3
Protocol: as §2

UF1 [5] = experiment: Cell viability in myelocytic leukemia cells; assay type: cell-based; details: UF1, arsenic resistant; FIG. 1a/1b
Source text: (§4) The effect of BCT-100 on arsenic sensitive myelocytic cell lines (NB4 and U937) as well as arsenic resistant myelocytic cell lines (HL60 and UF1) was investigated.
(§5) Both the arsenic sensitive and resistant leukemia cells responded to the BCT-100 treatment.

U937 [6] = experiment: Cell viability in myelocytic leukemia cells; assay type: cell-based; details: U937, arsenic sensitive; FIG. 1a/1b
Source text: as §4, §5

NB4 [7] = experiment: Cell viability in myelocytic leukemia cells; assay type: cell-based; details: NB4, arsenic sensitive; FIG. 1a/1b
Source text: as §4, §5

HL60 [8] = experiment: Cell viability in myelocytic leukemia cells; assay type: cell-based; details: HL60, arsenic resistant; FIG. 1a/1b
Source text: as §4, §5

UF1 [9] = experiment: Induction of apoptosis in leukemia cells; assay type: cell-based; details: UF1, arsenic resistant; FIG. 2
Protocol: (§6) The effect of BCT-100 in inducing apoptosis in both arsenic sensitive (NB4 and U937) and arsenic resistant (HL60 and UF1) leukemia cell lines was tested. […] However, the apoptosis rate was low in HL60 and UF1 cells in the presence of arsenic, as these cell lines are arsenic resistant.

U937 [10] = experiment: Induction of apoptosis in leukemia cells; assay type: cell-based; details: U937, arsenic sensitive; FIG. 2
Protocol: as §6

NB4 [11] = experiment: Induction of apoptosis in leukemia cells; assay type: cell-based; details: NB4, arsenic sensitive; FIG. 2
Protocol: as §6

HL60 [12] = experiment: Induction of apoptosis in leukemia cells; assay type: cell-based; details: HL60, arsenic resistant; FIG. 2
Protocol: as §6

HL60 cells [13] = experiment: Reorganization of promyelocytic leukemia nuclear bodies (immunostaining); assay type: cell-based; details: HL60, anti-promyelocytic leukemia immunostaining, vs DMSO control; FIG. 5
K562 = experiment: IC50 of BCT-100 in leukemia cell lines; assay type: cell-based; details: K562, myeloid leukemia
Source text: (§7) The inhibitory effect of BCT-100 in acute myeloid leukemia cells (Kasumi-1a, ML2, HL60, K562 and NB4) and T-cell leukemia cells (Jurkat, ALL-SIL, HPB-ALL and TALL-1) was studied.

All-SIL = experiment: IC50 of BCT-100 in leukemia cell lines; assay type: cell-based; details: T-cell leukemia
Source text: as §7

Kasumi-1a = experiment: IC50 of BCT-100 in leukemia cell lines; assay type: cell-based; details: myeloid leukemia
Source text: as §7

HPB-ALL = experiment: IC50 of BCT-100 in leukemia cell lines; assay type: cell-based; details: T-cell leukemia
Source text: as §7

NB4 [14] = experiment: IC50 of BCT-100 in leukemia cell lines; assay type: cell-based; details: NB4, myeloid leukemia
Source text: as §7

ML2 = experiment: IC50 of BCT-100 in leukemia cell lines; assay type: cell-based; details: ML2, myeloid leukemia
Source text: as §7

TALL-1 = experiment: IC50 of BCT-100 in leukemia cell lines; assay type: cell-based; details: TALL-1, T-cell leukemia
Source text: as §7

HL60 [15] = experiment: IC50 of BCT-100 in leukemia cell lines; assay type: cell-based; details: HL60, myeloid leukemia
Source text: as §7

Jurkat = experiment: IC50 of BCT-100 in leukemia cell lines; assay type: cell-based; details: T-cell leukemia
Source text: as §7

[16] = tested on: T-cell acute lymphocytic leukemia, acute myeloid leukemia, hepatocellular carcinoma and pancreatic cancer cell lines; experiment: IC50 of BCT-100 in various cancer cell lines; assay type: cell-based; details: FIG. 6
Source text: The IC50 values of BCT-100 in various cancer cell lines were investigated. The cancer cell lines being tested were T-cell acute lymphocytic leukemia, acute myeloid leukemia, hepatocellular carcinoma and pancreatic cancer.

Molecule: COc1cccc2c1C(=O)c1c(O)c3c(c(O)c1C2=O)C[C@@](O)(C(=O)CO)C[C@@H]3O[C@H]1C[C@H](N)[C@H](O)[C@H](C)O1 [Doxorubicin, reference compound]
- therapeutic effect on leukemia cell lines [1]: effective in treating leukemia
- infiltration of leukemia in liver, spleen and sternum (cytology) (HL60 cells [2]): Modest infiltration

B1: BCT-100: pegylated recombinant human arginase; pegylating agent may be mPEG-SPA; preparation disclosed in U.S. Ser. No. 10/518,223 (protein, UniProt P05089 1-322, looked up)
Arginase-1: MSAKSRTIGIIGAPFSKGQPRGGVEEGPTVLRKAGLLEKLKEQECDVKDYGDLPFADIPNDSPFQIVKNPRSVGKASEQLAGKVAEVKKNGRISLVLGGDHSLAIGSISGHARVHPDLGVIWVDAHTDINTPLTTTSGNLHGQPVSFLLKELKGKIPDVPGFSWVTPCISAKDIVYIGLRDVDPGEHYILKTLGIKYFSMTEVDRLGIGKVMEETLSYLLGRKKRPIHLSFDVDGLDPSFTPATGTPVVGGLTYREGLYITEEIYKTGLLSGLDIMEVNPSLGKTPEEVTRTVNTAVAITLACFGLAREGNHKPIDYLNPPK
modifications: PEGylated (mPEG-SPA)
- arginine depletion [3]: efficacious in inducing arginine depletion in dose-dependent manner
- survival rate and survival days (HL-60): increased as compared to the control group
- protein level of pmTOR (pmTOR): down-regulated
- granulocytic differentiation (HL60 cells [4]): induced granulocytic differentiation
- granulocytic differentiation (NB4 cells): induced granulocytic differentiation
- Bax level (Bax): up-regulated
- cell viability (UF1 [5]): dropped with increasing amount of BCT-100
- cell viability (U937 [6]): dropped with increasing amount of BCT-100
- cell viability (NB4 [7]): dropped with increasing amount of BCT-100
- cell viability (HL60 [8]): dropped with increasing amount of BCT-100
- therapeutic effect on leukemia cell lines [1]: effective in treating leukemia
- apoptosis rate (UF1 [9]): effective in inducing apoptosis
- apoptosis rate (U937 [10]): effective in inducing apoptosis
- apoptosis rate (NB4 [11]): effective in inducing apoptosis
- apoptosis rate (HL60 [12]): effective in inducing apoptosis
- infiltration of leukemia in liver, spleen and sternum (cytology) (HL60 cells [2]): Modest infiltration
- pattern of promyelocytic leukemia nuclear bodies (HL60 cells [13]): the microspeckled pattern disappeared and the size and brightness of the promyelocytic leukemia bodies returned to normal
- IC50 (K562): 25 mU/mL
- IC50 (All-SIL): 120 mU/mL
- IC50 (Kasumi-1a): 65 mU/mL
- IC50 (HPB-ALL): 110 mU/mL
- IC50 (NB4 [14]): 60 mU/mL
- IC50 (ML2): 65 mU/mL
- IC50 (TALL-1): 100 mU/mL
- IC50 (HL60 [15]): 55 mU/mL
- IC50 (Jurkat): 40 mU/mL
- effectiveness in cancer cell lines ([16]; T-cell acute lymphocytic leukemia, acute myeloid leukemia, hepatocellular carcinoma and pancreatic cancer): effective
- times more potent in leukemia and pancreatic cancer than in hepatocellular carcinoma ([16]; from IC50 values): 6-10 times

Reference: patent US20130295073A1, “Use of pegylated recombinant human arginase for treatment of leukemia” (Bio-Cancer Treatment International Ltd., priority 2010, published 2013)
